According to the DeepSol protein solubility set:

Assay: soluble on expression in E. coli; label from the status in PepcDB or PDB records

Row | Sequence | soluble on expression in E. coli
1 | MSLSVSFIFLLVASIGAVVADSENVLVLTESNFEETINGNEFVLVKFYAPWCVHCKSLAPKYDEAADLLKEEGSDIKLAKVDATENQALASKFEVRGYPTILYFKSGKPTKYTGGRATAQIVDWVKKKSGPTVTTVESVEQLEELKGKTRVVVLGYFKDAKSDAATIYNEVADSVDDAFFAVAGSAEVAAAASLNEDGVALIRTDGDDSETSTIAEAEITNTIALKQWLHAYKLSAVTEFTHESAQEIVGGDLKKFHFLIIRKSDSSFDETIAKFTEVAKKFRAKIVFVLLDVDVEENARILEFLGVDAKNTPANRIVSLADQVEKFKPQEGEDFEAFTNSYLEGKSAQDLKAQDLPEDWNALPVKVLVASNFNEIALDETKTVFVKFYAPWCGHCKQLVPVWDELAEKYESNPNVVIAKLDATLNELADVKVNSFPTLKLWPAGSSTPVDYDGDRNLEKFEEFVNKYAGSASESETASQDHEEL | not soluble
2 | MEGIIVRRVIPSDNSCLFNAIGYVMDKDKNKAPELRQVIAAAVASNKEKYNEAFLGKLNEEYCAWILNPDKWGGAIELSILADYYGREIAAYDIQTSRCDLYGQTRNYDERVMLIYDGLHYDALALSPFEGAEEDFDMTIYPVGKDRSIGSIEGLALNLVKDQQRKRSYTDTANFTLRCGVCQIGVIGQKEAVEHAQATGHVNFQEYK | soluble
3 | MGSDKIHHHHHHMLKHADIWAAIDALARDHGLTASALARKAGLDPTTFNKSKRVTREGKPRWPSTESVAKVLEATGATMTAFVGYIEDTAQARQTANTIPLIGFAQAGDCGYFDDAGYPVGGSWDEIPFPEIGDPHAYALEVSGDSMEPLYRDGDVVIVSPAAGVRRGDRVVVRTTEGEVMVKQLVRQTAKRIELASINPAHPGRSLATEEVAWIARILWSSQ | not soluble
4 | MENPHEQVQANILSRIIGNVKRLNESVAILNQELVTINNRNKNLEIMGAICDNYHSSVQFNLEATNNKKPPL | not soluble
5 | MGSDKIHHHHHHMKAYLVGLYTLTPTHPGSGTELGVVDQPIQRERHTGFPVIWGQSLKGVLRSYLKLVEKVDEEKINKIFGPPTEKAHEQAGLISVGDAKILFFPVRSLKGVYAYVTSPLVLNRFKRDLELAGVKNFQTEIPELTDTAIASEEITVDNKVILEEFAILIQKDDKGILESVVKAIEQAFGNEMAEKIKGRIAIIPDDVFRDLVELSTEIVARIRINAETGTVETGGLWYEEYIPSDTLFYSLILVTPRAKDNDMALIKEVLGKINGKYLQIGGNETVGKGFVKVTLKEVTNNGGTHAK | not soluble
6 | PESPLRSGRREIANILGVAAQVQRQVAEALRNNNTDGIVDALVRARGTQGQINQMIAAANMGKETIQASPLLWAQRQRIRSMMRILNPVDNAMRNTRVLARRALVLCEDNDEVSGRQIQIIEQLAEVSEDLSNLYYGNSKLSENAEIPRLVNNLKMIGSRTGLEVSEGKVLSAQVVLAQSRSLVVDLLQICGQSRRSAVEILSPTSMHPASVKEIWNDDV | not soluble
7 | MQNPFVPQLVYIEPRALEYPLGQELQDKFENMGIEIRETTSHNQVRNIPGKNHLQQYRNAKSTLVIGVRKTLKFDSSKPSAEYAIPFATGCMGHCHYCYLQTTMGSKPYIRTYVNVEEILDQADKYMKERAPEFTRFEASCTSDIVGIDHLTHTLKRAIEHFGQSDLGKLRFVTKFHHVDHLLDAKHNGKTRFRFSINADYVIKNFEPGTSPLDKRIEAAVKVAKAGYPLGFIVAPIYIHEGWEEGYRHLFEKLDAALPQDVRHDITFELIQHRFTKPAKRVIEKNYPKTKLELDEEKRRYKWGRYGIGKYIYQKDEEHALREALESYIDTFFPNAKIEYFT | not soluble
8 | MQSNTPQPNPAPFLKAGETVVLFDGVCKLCNGWAKFIIRHDRRQRIRLATVQSPEGQALLEWAGLPLDRFDTMAAVTGDRLYVRSEAFFVALSDFPAPWRWLRVLRFFPAVIRDWLYDRIALNRYRLFGRYDSCLLPTPDHERRFLKASPLEHHHHHH | soluble
9 | MTSHKRFCLSSRSPSYHTTELSLPLYIKFISWDFDCFQVDDVGFRPIFSAKTPNSPFTVEILRSGISGIVFDERETNTTANDGRMNFAMEYIIDKLLGDRCVPITVETLQISVDRVHYIFSKNLNMICKNLDVSIIETGVTLDTILHTSSYPLKSLSLSNTWAFAHPIILTAELLIVPTSDHFHRITNARVHAISLSGDFKLFIYEWLENGREIGTEFTIGGFRGRDYAKKMVCDIKEEFDERFQVVRRSHFPLSIAIKMNDFSEIYVFYDDIMERSKVYFKVQPTQF | not soluble
10 | MSVIIVGGGMAGATLALAISQFSHGTLPVHLIEAKAPEADGHPGFDARAIALAAGTCQQLARIGVWQAISDCATAINTVHVSDRGHAGFVTLDAQDYSLAALGHVAELHDIGLRLFALLRKAPGVTLHCPERVASVSRTQQQVNVTLENGNVIAGSVLVAANGTHSALASRCGVDWHQEPYEQLAVIANVATAIPHQGRAFERFTPNGPLAMLPMSHGRCSLVWCHPLDQRDEVLSWSDAQFCHALQAAFGWRLGRITQAGKRSAYPLALTTAAKVFSHRTVVVGNAAQTLHPIAGQGFNLGLRDVMSLAETLVAAQDAGEDIGAWHVLSRYQQRRQVDRDTTIGVTNGLVHLFANRWAPLVIGRNIGLMAMELLPPARDALAQRTLGWVARLEHHHHHH | not soluble
11 | SAPFDVIGPQEPILAVVGEDAELPCRLSPNVSAKGMELRWFREKVSPAVFVSREGQEQEGEEMAEYRGRVSLVEDHIAEGSVAVRIQEVKASDDGEYRCFFRQDENYEEAIVHLKVAALGSDPHISMKVQESGEIQLECTSVGWYPEPQVQWRTHRGEEFPSMSESRNPDEEGLFTVRASVIIRDSSMKNVSCCIRNLLLGQEKEVEVSIPASFFPRLT | not soluble
12 | MSLGELLFNRSFENTKPVSESNSWYTCYRGDVKEAKWWHSGYEEPKWYLLADGRKEEKLPLIFNNYWPSAHGKYFLQIDNRKKQIPTLLVQERIYIEKGKGYTVSGLFSSGGYLSEEKYSKESVPVTIAIYKEGDFHTPLSKTELAVNTNQFILYSSSLDATEYEGWCTYTIEVPAGGCVGIDLLSLMADDVIKGWKRESVERIKNELRPRTMRMPGGCFTSLYDWRSGIGPREERPVSYDTWWGCELLNDVGTFELVDLCEAVGAEPFFCVPVMFNNEYSAADWVDFCNNPTNAQRIAYGRTKPLNVKYWELENEPYRRFDAVTYANRCVDFAKAMKAKDPSIKIAVGNYWLFNKKFKEMLEIVGPYVDLITNRGGTPEEMRADIVILDAYNKAHGTDIKLCHTEFRAPVTRNEGNTDGLNQKDTGGEETLFNASIRWGFAMNMVEQYIAYQNMGGSFFTANYTNLSDGWGECLINTPKEGTYLNAPGVAFALLNSLDIAYPQIIEQEKENQDIVIQAAWNKRRDKLTLVVLNFSQNTQPCKIDFSQIKKSFRVRKGMKIAPQSDLSFNTLQHPEEVKVESFVPSTGKMMKLGLPGNSLIVVELQAERSHGIHVNASTGNEGHHHHHH | not soluble
13 | MDEQISKSQKKRDAHYLQDIGIKFIDLSASKLDSLPLPDNLRQAIVDARSIKSHGAKRRQAQLIGKLMRAADFEAILAAYEKILEEESSVTASFHEIELWRDRLLQDGKDALTEFIDAYQPEDVQQLRQLIKKALDDQMKEKNTGAAKALFRYLRSLIK | not soluble
14 | MGSDKIHHHHHHMIHKRSNSPNMKPIIEIKNLAAGYDGRTVLHDVNLNVYERDFLGIIGPNGGGKTTLIKCILGLLKPTAGEINFHAPTEASSHSQLSTSNLPLSLGYLPQYSTIDRKFPISVEEVILSGLSIQKSLTSRFTPEQREKGKHIIARMGLEGLEHRSIGQLSGGQLQRALLGRAIISDPSVLILDEPSTYIDKRFEARLYELLAEINKECAIILVSHDIGTVLQQVKSIACVNETLDYHPDTGVSTEWLERNFNCPIELLGHGTLPHRVLGEHHHHH | not soluble
15 | MNSGDNIIKKKSFTFAVRIVNLYKVLSSEIKEFVMSKQLLRSGTSVGANIREALNAQSKPGFIHKLAISQKECDETGYTNNVEFESMNTDAIELLKIVRSIIMTSKKNIIHNSLEHHHHHH | not soluble
16 | GSGLSAQDISQPLQNSFIHTGHGDSDPRHCWGFPDRIDELYLGN | soluble
17 | MGSSHHHHHHSSGLVPRGSHMEHAFTPLEPLLPTGNLKYCLVVLNQPLDARFRHLWKKALLRACADGGANHLYDLTEGERESFLPEFVSGDFDSIRPEVKEYYTKKGCDLISTPDQDHTDFTKCLQVLQRKIEEKELQVDVIVTLGGLGGRFDQIMASVNTLFQATHITPVPIIIIQKDSLIYLLQPGKHRLHVDTGMEGSWCGLIPVGQPCNQVTTTGLKWNLTNDVLGFGTLVSTSNTYDGSGLVTVETDHPLLWTMAIKS | soluble
18 | MGSDKIHHHHHHMEVIRLDKVSLWRRTQEEFSYDLKKTLLSLIEGKYRKPAKKLVLDNVDLVVEKGDKIGIIGANGSGKSTLLKIISGILQPTTGTVRVRGQVAPLIELGAGFDAEISVMDNILLYGVLLGFSRAEMKERANSILEFAELQDYALVPVKGLSSGMVARLGFSIATDVQPNILILDEVLSVGDENFKNKCKQRIDNFWNGDATVLVVSHDLQFVKQYCNQLVWLSHGKIEFIGDAGEAIQNYLSTLTST | not soluble
19 | KRQKIHLGDRSQKCSKCGIIFIRRSTLSRRKTPMCEKCRKDSCQEAALNKDEGNESGKKT | soluble
20 | GPLGSMKLLVVDDSSTMRRIIKNTLSRLGYEDVLEAEHGVEAWEKLDANADTKVLITDWNMPEMNGLDLVKKVRSDSRFKEIPIIMITTEGGKAEVITALKAGVNNYIVKPFTPQVLKEKLEVVLGTND | soluble
21 | GPGSMPADKSYALKQVQTFGKKKTAIAVATVTKAAQCNIKVNGVPLQQILPDTLRAKIMEAITVVGSKYYSRLRIDVAVHGGGQVSQAYAARQAIAKGLIAFFQKYHNEVEKAALKDKFLAYDKFLLIADPRRCEPKKWGRHSARTRFTKSYR | soluble
22 | MSVMADRLDNMDITVSSPDGNIEGRYRRRGELTLEFRGDAYEQYRQHTLEHQLARLATLLWTGYQREYDAAVSEVVGHPVKDERHLWDANRRRYREAQRATAASGMSAGGRVYIENTGMLSWHVVIRDGTLGELTAAEFASECLSAFDALWRDYRSKMAALRAEHYGLSFASKRRERQPRH | not soluble
23 | MKLEVLPLDQKTFSAYGDVIETQEREFFHINNGLVERYHDLAKVEVLEQDRTLISINRAQPAAMPIVVHELERHPLGTQAFVPMNGEAFVVIVALGDDKPDLSTLRAFISNGRQGVNYHRNVWHHPLFAWQTVTDFLTVDRGGSDNCDVESIPTHELCFALEHHHHHH | soluble
24 | MSLRFNVLKYIRTTKANIQTIAMPLTTKPLSLKINAALFDVDGTIIISQPAIAAFWRDFGKDKPYFDAEHVIHISHGWRTYDAIAKFAPDFADEEYVNKLEGEIPEKYGEHSIEVPGAVKLCNALNALPKEKWAVATSGTRDMAKKWFDILKIKRPEYFITANDVKQGKPHPEPYLKGRNGLGFPINEQDPSKSKVVVFEDAPAGIAAGKAAGCKIVGIATTFDLDFLKEKGCDIIVKNHESIRVGEYNAETDEVELIFDDYLYAKDDLLKWEGHHHHHH | not soluble
25 | MASMTGGQQMGRGSMAGVLPAHGTQHGIRLPLRSGLGGAPLGLRLPRETDEEPEEPGKKGSFVEMVDNLRGKSGQGYYVEMTVGSPPQTLNILVDTGSSNFAVGAAPHPFLHRYYQRQLSSTYRDLRKGVYVPYTQGKWEGELGTDLVSIPHGPNVTVRANIAAITESDKFFINGSNWEGILGLAYAEIARPDDSLEPFFDSLVKQTHVPNLFSLQLCGAGFPLNQSEVLASVGGSMIIGGIDHSLYTGSLWYTPIRREWYYEVIIVRVEINGQDLKMDCKEYNYDKSIVDSGTTNLRLPKKVFEAAVKSIKAASSTEKFPDGFWLGEQLVCWQAGTTPWNIFPVISLYLMGEVTNQSFRITILPQQYLRPVEDVATSQDDCYKFAISQSSTGTVMGAVIMEGFYVVFDRARKRIGFAVSACHVHDEFRTAAVEGPFVTLDMEDCGYNIPQTDES | soluble
